Experimental findings from PMC10681739, “High-throughput data and modeling reveal insights into the mechanisms of cooperative DNA-binding by transcription factor proteins” are described below.

The target of this series is T1, ETS1 x2 (Homo sapiens, UniProt P14921).
T1 sequence: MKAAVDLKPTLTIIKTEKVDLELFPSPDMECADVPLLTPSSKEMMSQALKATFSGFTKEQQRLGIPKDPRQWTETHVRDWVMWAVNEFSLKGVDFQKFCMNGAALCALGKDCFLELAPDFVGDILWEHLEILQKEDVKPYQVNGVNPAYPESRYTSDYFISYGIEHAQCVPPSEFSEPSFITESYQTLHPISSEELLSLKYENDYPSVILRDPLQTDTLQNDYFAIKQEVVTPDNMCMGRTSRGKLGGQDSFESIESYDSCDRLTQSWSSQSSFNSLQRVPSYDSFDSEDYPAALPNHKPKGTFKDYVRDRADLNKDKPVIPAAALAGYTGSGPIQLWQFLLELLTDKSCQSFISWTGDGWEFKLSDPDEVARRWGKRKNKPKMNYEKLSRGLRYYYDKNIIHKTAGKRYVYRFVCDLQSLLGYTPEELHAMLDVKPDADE
The series is described as follows: gcPBM; 10 nM ETS1. As to conditions: tags: N-terminal GST (pDEST15), kept (PMC6008103); chain copies: 2; label: surface-attached array probe.

B1: Table S4 A row 1203 (dsDNA)
DNA 1: GGAGCGGAAGCCCTTTACACTACGGTGTTTCCGGCT
DNA 2: AGCCGGAAACACCGTAGTGTAAAGGGCTTCCGCTCC
Turning to B1, the binding signal was 5440 PBM fluorescence, median of replicate spots.

B2: Table S4 A row 1450 (dsDNA)
DNA 1: CTCCCACTTCCTTCCTGTGCGGGGAAGAAAACTGCC
DNA 2: GGCAGTTTTCTTCCCCGCACAGGAAGGAAGTGGGAG
For B2, the binding signal is 25000 PBM fluorescence, median of replicate spots.

B3: Table S4 A row 2476 (dsDNA)
DNA 1: TGTGCCGTAGCATTTCCGGCGGAAGTTGCTGGGCGC
DNA 2: GCGCCCAGCAACTTCCGCCGGAAATGCTACGGCACA
With B3, the binding signal is 26900 PBM fluorescence, median of replicate spots.

B4: Table S4 A row 842 (dsDNA)
DNA 1: GGGTGGCCCAGGCTTCCGCTTCCTGCCCACATACCC
DNA 2: GGGTATGTGGGCAGGAAGCGGAAGCCTGGGCCACCC
With B4, the binding signal is 10900 PBM fluorescence, median of replicate spots.

B5: Table S4 A row 822 (dsDNA)
DNA 1: AGCAGCTCAACAGGAAATACATCCTTTTCTGGTTGA
DNA 2: TCAACCAGAAAAGGATGTATTTCCTGTTGAGCTGCT
Regarding B5, the binding signal is 11900 PBM fluorescence, median of replicate spots.

B6: Table S4 A row 2128 (dsDNA)
DNA 1: CCGGCCCGCAGCCGGAACCGGAAATGCCCTTAGGGA
DNA 2: TCCCTAAGGGCATTTCCGGTTCCGGCTGCGGGCCGG
For B6, the binding signal is 17000 PBM fluorescence, median of replicate spots.

B7: Table S4 A row 2310 (dsDNA)
DNA 1: CATACGGCGCCACCGGAAGTTCCGGCAAGTGGGCCC
DNA 2: GGGCCCACTTGCCGGAACTTCCGGTGGCGCCGTATG
On to B7, for which the binding signal is 18500 PBM fluorescence, median of replicate spots.

B8: Table S4 A row 1689 (dsDNA)
DNA 1: TGCCCGGATGTTGAGGTCTGGTTGGCATTTCCTGTG
DNA 2: CACAGGAAATGCCAACCAGACCTCAACATCCGGGCA
As for B8, the binding signal was 9040 PBM fluorescence, median of replicate spots.

B9: Table S4 A row 916 (dsDNA)
DNA 1: ACTGCAGATCCCCTTCCTGTTTCCTTTGCTCTCCTG
DNA 2: CAGGAGAGCAAAGGAAACAGGAAGGGGATCTGCAGT
As to B9, the binding signal was 6260 PBM fluorescence, median of replicate spots.

B10: Table S4 A row 1991 (dsDNA)
DNA 1: GCGCGCACCCTCCTTCCGGCATCCGTAGAACCCCCG
DNA 2: CGGGGGTTCTACGGATGCCGGAAGGAGGGTGCGCGC
Take B10: the binding signal was 15100 PBM fluorescence, median of replicate spots.

B11: Table S4 A row 1913 (dsDNA)
DNA 1: AAATAACAGAAAGGAAATACATCCTGCCAGTTAACA
DNA 2: TGTTAACTGGCAGGATGTATTTCCTTTCTGTTATTT
Turning to B11, the binding signal was 8690 PBM fluorescence, median of replicate spots.

B12: Table S4 A row 1887 (dsDNA)
DNA 1: CACTCAGGAAGTAGGTCAGGAGGAGATATCCTGTGT
DNA 2: ACACAGGATATCTCCTCCTGACCTACTTCCTGAGTG
Regarding B12, the binding signal is 6420 PBM fluorescence, median of replicate spots.

B13: Table S4 A row 1258 (dsDNA)
DNA 1: CCATCAGCAAACATCCCACCGGATGTTTTCTTAAGC
DNA 2: GCTTAAGAAAACATCCGGTGGGATGTTTGCTGATGG
As for B13, the binding signal was 5080 PBM fluorescence, median of replicate spots.

B14: Table S4 A row 189 (dsDNA)
DNA 1: CACTTTCTGAAGAGGAAACAGGAAGTGTGTTTCATA
DNA 2: TATGAAACACACTTCCTGTTTCCTCTTCAGAAAGTG
On to B14, for which the binding signal was 8380 PBM fluorescence, median of replicate spots.

B15: Table S4 A row 2364 (dsDNA)
DNA 1: GTGGGGCTTCCTGCCGCAGAGCCGCCTTCCGCCCTC
DNA 2: GAGGGCGGAAGGCGGCTCTGCGGCAGGAAGCCCCAC
Consider B15, for which the binding signal was 17300 PBM fluorescence, median of replicate spots.

B16: Table S4 A row 809 (dsDNA)
DNA 1: GCTTGGGTGTTTCCTGTGCTGCTTCCTCTCCAACCT
DNA 2: AGGTTGGAGAGGAAGCAGCACAGGAAACACCCAAGC
In the case of B16, the binding signal is 23300 PBM fluorescence, median of replicate spots.

B17: Table S4 A row 2250 (dsDNA)
DNA 1: CTGACAGACCCGGAAATAAGAGGAAACCACACACTT
DNA 2: AAGTGTGTGGTTTCCTCTTATTTCCGGGTCTGTCAG
As to B17, the binding signal is 8250 PBM fluorescence, median of replicate spots.

B18: Table S4 A row 376 (dsDNA)
DNA 1: CGTGACACTTCTTTTCCTGTTTCCTGGGTCTCACCA
DNA 2: TGGTGAGACCCAGGAAACAGGAAAAGAAGTGTCACG
With B18, the binding signal was 4760 PBM fluorescence, median of replicate spots.

B19: Table S4 A row 634 (dsDNA)
DNA 1: AGACAGACACTGCTTCCTGCTTCCTAATGGCCGATC
DNA 2: GATCGGCCATTAGGAAGCAGGAAGCAGTGTCTGTCT
On to B19, for which the binding signal is 10500 PBM fluorescence, median of replicate spots.

B20: Table S4 A row 557 (dsDNA)
DNA 1: TTGACATCCTGCTCTCCTGTGACTTTGCTTCCTGTT
DNA 2: AACAGGAAGCAAAGTCACAGGAGAGCAGGATGTCAA
For the molecule B20, the binding signal was 20500 PBM fluorescence, median of replicate spots.

B21: Table S4 A row 1964 (dsDNA)
DNA 1: CCACGGTGGTGACTTCCTTTTCCGCTCCCCTACACA
DNA 2: TGTGTAGGGGAGCGGAAAAGGAAGTCACCACCGTGG
With B21, the binding signal was 7690 PBM fluorescence, median of replicate spots.

B22: Table S4 A row 1614 (dsDNA)
DNA 1: GTTCTTCGACCCGGATGCGCTTCCTAATAAAACGGC
DNA 2: GCCGTTTTATTAGGAAGCGCATCCGGGTCGAAGAAC
Consider B22, for which the binding signal was 5240 PBM fluorescence, median of replicate spots.

B23: Table S4 A row 323 (dsDNA)
DNA 1: TCCATGACCCCATTTCCGCTTCCTACAGGTGAGTGT
DNA 2: ACACTCACCTGTAGGAAGCGGAAATGGGGTCATGGA
Turning to B23, the binding signal was 21500 PBM fluorescence, median of replicate spots.

B24: Table S4 A row 763 (dsDNA)
DNA 1: GGGCAACTTCCGCGACCTCTACCACATCCTTGAGAA
DNA 2: TTCTCAAGGATGTGGTAGAGGTCGCGGAAGTTGCCC
Turning to B24, the binding signal was 19000 PBM fluorescence, median of replicate spots.

B25: Table S4 A row 2376 (dsDNA)
DNA 1: CCCAGAGCCAATTTTCCACTTCCGCTTCCGGCGCTG
DNA 2: CAGCGCCGGAAGCGGAAGTGGAAAATTGGCTCTGGG
For B25, the binding signal is 15700 PBM fluorescence, median of replicate spots.

B26: Table S4 A row 126 (dsDNA)
DNA 1: CACTGCACACTTCCTAGCAGGCTTCCTGTGTAGCTG
DNA 2: CAGCTACACAGGAAGCCTGCTAGGAAGTGTGCAGTG
Regarding B26, the binding signal was 4970 PBM fluorescence, median of replicate spots.

B27: Table S4 A row 215 (dsDNA)
DNA 1: GGGCCCCAGCTTCCTCTCTGCCTTCCGCCGCCCGCT
DNA 2: AGCGGGCGGCGGAAGGCAGAGAGGAAGCTGGGGCCC
As for B27, the binding signal was 6960 PBM fluorescence, median of replicate spots.

B28: Table S4 A row 1254 (dsDNA)
DNA 1: TGAAAATGAGCATTTCCTGTTTCCTCAGGCATTTCT
DNA 2: AGAAATGCCTGAGGAAACAGGAAATGCTCATTTTCA
With B28, the binding signal was 31500 PBM fluorescence, median of replicate spots.

B29: Table S4 A row 2457 (dsDNA)
DNA 1: TGCAGCTAACTACTTCCGCTTCCGCTTGCGTCCCCT
DNA 2: AGGGGACGCAAGCGGAAGCGGAAGTAGTTAGCTGCA
Turning to B29, the binding signal is 24300 PBM fluorescence, median of replicate spots.

B30: Table S4 A row 255 (dsDNA)
DNA 1: CTGGAGGCAGGCTTCCTGTGCTTCCTGTAGGTGACA
DNA 2: TGTCACCTACAGGAAGCACAGGAAGCCTGCCTCCAG
As to B30, the binding signal is 9790 PBM fluorescence, median of replicate spots.

B31: Table S4 A row 2246 (dsDNA)
DNA 1: AAAGCACGACCTTCCGGGACCGGAAGTGCCGGTCGA
DNA 2: TCGACCGGCACTTCCGGTCCCGGAAGGTCGTGCTTT
For the molecule B31, the binding signal was 28900 PBM fluorescence, median of replicate spots.

B32: Table S4 A row 2352 (dsDNA)
DNA 1: CGCCGCTGACACCGGAACCGGAAACTTCATCAGGAG
DNA 2: CTCCTGATGAAGTTTCCGGTTCCGGTGTCAGCGGCG
Regarding B32, the binding signal is 6600 PBM fluorescence, median of replicate spots.

B33: Table S4 A row 954 (dsDNA)
DNA 1: GGTATACAGGAAACCCAGAGAGACAGGAAATGTCTC
DNA 2: GAGACATTTCCTGTCTCTCTGGGTTTCCTGTATACC
B33: the binding signal is 5630 PBM fluorescence, median of replicate spots.

B34: Table S4 A row 1550 (dsDNA)
DNA 1: AAGTTGGGCCTGACTTCCTTCCTGTGGGGTTGCAGC
DNA 2: GCTGCAACCCCACAGGAAGGAAGTCAGGCCCAACTT
With B34, the binding signal was 5110 PBM fluorescence, median of replicate spots.

B35: Table S4 A row 1898 (dsDNA)
DNA 1: CCACCGGAAGACCTCAGTCATGTGGGTTTTCCGGTT
DNA 2: AACCGGAAAACCCACATGACTGAGGTCTTCCGGTGG
As to B35, the binding signal is 7470 PBM fluorescence, median of replicate spots.

B36: Table S4 A row 1194 (dsDNA)
DNA 1: TCGGAACAGTGACTTCCGGCGGAAGAAGAAGCCGGT
DNA 2: ACCGGCTTCTTCTTCCGCCGGAAGTCACTGTTCCGA
As for B36, the binding signal was 32500 PBM fluorescence, median of replicate spots.

B37: Table S4 A row 57 (dsDNA)
DNA 1: ACTGGAGAACAGGAAATAGCAGGAAACGTCACCTAC
DNA 2: GTAGGTGACGTTTCCTGCTATTTCCTGTTCTCCAGT
Regarding B37, the binding signal was 13600 PBM fluorescence, median of replicate spots.

B38: Table S4 A row 314 (dsDNA)
DNA 1: TTGGGAGGCACAGGAAGACCGGATGTGGTTTAAGAA
DNA 2: TTCTTAAACCACATCCGGTCTTCCTGTGCCTCCCAA
Turning to B38, the binding signal was 12700 PBM fluorescence, median of replicate spots.

B39: Table S4 A row 1340 (dsDNA)
DNA 1: TTGAGGCCCAGACCGGAACTTCCTTTCGGCCTCAGT
DNA 2: ACTGAGGCCGAAAGGAAGTTCCGGTCTGGGCCTCAA
On to B39, for which the binding signal is 5800 PBM fluorescence, median of replicate spots.
